According to patent publication US20080241172A1 (CENTRE NATIONAL DE LA RECHERCHE SCIENTIFIQUE, published 2008):
Substitutions are numbered along the chain they refer to. In names and notes the source's numbering stands.

Experiments:
[1] = biological target: the molecule itself; experiment: homodimers from transfected COS cells; sedimentation in sucrose gradients
Description: (§1) COS cells were transfected by the DEAE-dextran method, as previously described (Bon et al., 1997), using 4 μg of DNA encoding the AChE catalytic subunit and 4 μg of DNA encoding QN or PRAD-deleted QN, per 100 mm dish. Because Torpedo AChE folds into its active conformation at 27° C., but not at 37° C., the cells were incubated for two days at 37° C. after transfection, then transferred to 27° C. and maintained at this temperature for 3-4 days, in a medium containing 10% Nuserum (Inotech, Dottikon, Switzerland), which had been pretreated with 10⁻⁶ M soman to inactivate serum choline sterases.
(§2) Centrifugation was performed in 5-20% sucrose gradients (50 mM Tris-HCl, pH 7.5, 50 mM MgCl₂, either in the presence of 0.2% Brij-97 or in the presence of 0.2% Triton X-100) in a Beckman SW41 rotor, at 36,000 rpm, for 18 h at 6° C. The gradients contained Escherichia coli β-galactosidase (16 S) and alkaline phosphatase (6.1 S) as internal sedimentation standards (Bon et al., 1997). Amphiphilic molecules generally sediment faster in the presence of Triton X100 than of Brij-97, providing an indication on their amphiphilic character.

[2] = biological target: the molecule itself; experiment: homo-oligomers from transfected COS cells; sedimentation in sucrose gradients
Description: as §1, §2

[3] = biological target: the molecule itself; experiment: homo-oligomers from transfected COS cells; sedimentation in sucrose gradients (tetramers still formed, dimers not)
Description: as §1, §2

B1: Torpedo AChET mutant with M22 of the t peptide replaced by a cysteine, with mutation of C37 (C37S) (enzyme)
chain: DDDSELLVNTKSGKVMRTRIPVLSSHISAFLGIPFAEPPVGNMRFRRPEPKKPWSGVWNASTYPNNCQQYVDEQFPGFPGSEMWNPNREMSEDCLYLNIWVPSPRPKSATVMLWIYGGGFYSGSSTLDVYNGKYLAYTEEVVLVSLSYRVGAFGFLALHGSQEAPGNMGLLDQRMALQWVHDNIQFFGGDPKTVTLFGESAGRASVGMHILSPGSRDLFRRAILQSGSPNCPWASVSVAEGRRRAVELRRNLNCNLNSDEDLIQCLREKKPQELIDVEWNVLPFDSIFRFSFVPVIDGEFFPTSLESMLNAGNFKKTQILLGVNKDEGSFFLLYGAPGFSKDSESKISREDFMSGVKLSVPHANDLGLDAVTLQYTDWMDDNNGIKNRDGLDDIVGDHNVICPLMHFVNKYTKFGNGTYLYFFNHRASNLVWPEWMGVIHGYEIEFVFGLPLVKELNYTAEEEALSRRIMHYWATFAKTGNPNEPHSQESKWPLFTTKEQKFIDLNTEPIKVHQRLRVQMCVFWNQFLPKLLNATETIDEAERQWKTEFHRWSSYMCHWKNQFDQYSRHENSAEL
notes: also called M22 with C37S
Does B1 bind [1]?
Result: binds

B2: Torpedo AChET mutant T12C (enzyme)
chain: B1 chain with T547C, C557M, S572C
Does B2 bind [2]?
Result: binds

B3: wild type Torpedo AChET (enzyme)
chain: B1 chain with C557M, S572C
notes: The wild type is built by undoing that change; Expressed in transfected COS cells; cell extracts and medium were analysed; also called wild type AChET subunits
Does B3 bind [2]?
Result: binds

B4: Torpedo AChET mutant with A6 of the t peptide replaced by a cysteine (enzyme)
chain: B1 chain with A541C, C557M, S572C
Does B4 bind [1]?
Result: binds

B5: Torpedo AChET mutant with H34 of the t peptide replaced by a cysteine, with mutation of C37 (C37S) (enzyme)
chain: B1 chain with C557M, H569C
notes: also called H34 with C37S
Does B5 bind [1]?
Result: binds

B6: Torpedo AChET mutant with residue 3 of the t peptide replaced by a cysteine (enzyme)
chain: B1 chain with I538C, C557M, S572C
notes: also called 13 (printed; read as I3)
Does B6 bind [1]?
Result: binds

B7: Torpedo AChET mutant C37S (enzyme)
chain: B1 chain with C557M
Does B7 bind [3]?
Result: binds
